In series [1] the test system is HeLa Kyoto. The experiment in a line: solubility in G1/S (NP-40 vs SDS abundance) (log2 ratio); higher = more soluble. The settings on record: cell cycle stage: G1/S.
Series [2] has as its system HeLa Kyoto. The experiment in a line: melting temperature (median over replicates), in situ; higher = more thermally stable.
Series [3] deals with HeLa Kyoto. The experiment in a line: solubility change mitosis vs G1/S (difference of NP-40 vs SDS log2 ratios) (log2 ratio difference); higher = more soluble in mitosis.
In series [4] the test system is HeLa Kyoto. The experiment in a line: thermal stability score vs G1/S (z-score of summed log2 fold changes over temperatures); higher = more thermally stable than in G1/S.
Where [5] appears, read: cell cycle stage: early G1 (4.5 h after nocodazole release).
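For melting temperature (median over replicates), in situ in this document: HeLa Kyoto cells synchronized by double thymidine or nocodazole block, proteins quantified by TMT10plex mass spectrometry, three independent biological replicates.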
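For solubility change mitosis vs G1/S (difference of NP-40 vs SDS log2 ratios) in this document: synchronized HeLa Kyoto cells (double thymidine block for G1/S, nocodazole release for mitosis), protein amounts in NP-40 versus SDS lysates quantified by mass spectrometry, three biological replicates.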
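For solubility in G1/S (NP-40 vs SDS abundance) in this document: HeLa Kyoto cells arrested at G1/S by double thymidine block, proteins quantified by TMT10plex mass spectrometry in mild NP-40 versus SDS extracts, three biological replicates.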
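For thermal stability score vs G1/S (z-score of summed log2 fold changes over temperatures) in this document: synchronized HeLa Kyoto cells, proteins quantified by TMT10plex mass spectrometry, three biological replicates, mitosis taken 0.5 h after nocodazole release, G1/S directly after double thymidine block.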

In the case of “MAAASGYTDLREKLKSMTSRDNYKAGSREAAAAAAAAVAAAAAAAAAAEPYPVSGAKRKYQEDSDPERSDYEEQQLQKEEEARKVKSGIRQMRLFSQDECAKIEARIDEVVSRAEKGLYNEHTVDRAPLRNKYFFGEGYTYGAQLQKRGPGQERLYPPGDVDEIPEWVHQLVIQKLVEHRVIPEGFVNSAVINDYQPGGCIVSHVDPIHIFERPIVSVSFFSDSALCFGCKFQFKPIRVSEPVLSLPVRRGSVTVLSGYAADEITHCIRPQDIKERRAVIILRKTRLDAPRLETKSLSSSVLPPSYASDRLSGNNRDPALKPKRSHRKADPDAAHRPRILEMDKEENRRSVLLPTHRRRGSFSSENYWRKSYESSEDCSEAAGSPARKVKMRRH [ALKBH5]”, the “solubility in G1/S (log2)” value in series [1] is -0.0973. The figures for the melting temperature in series [2] (cell cycle stage: G1/S) and in series [2] (cell cycle stage: mitosis) were 51 °C and 51.4 °C, respectively. In addition, the “solubility change mitosis (log2)” value in series [3] is 0.0485. Further, the thermal stability score in series [4] (setting [5]) was 3.65; in series [4] (cell cycle stage: mitosis), -0.482.
As for “MKRSVAVWLLVGLSLGVPQFGKGDICDPNPCENGGICLPGLADGSFSCECPDGFTDPNCSSVVEVASDEEEPTSAGPCTPNPCHNGGTCEISEAYRGDTFIGYVCKCPRGFNGIHCQHNINECEVEPCKNGGICTDLVANYSCECPGEFMGRNCQYKCSGPLGIEGGIISNQQITASSTHRALFGLQKWYPYYARLNKKGLINAWTAAENDRWPWIQINLQRKMRVTGVITQGAKRIGSPEYIKSYKIAYSNDGKTWAMYKVKGTNEDMVFRGNIDNNTPYANSFTPPIKAQYVRLYPQVCRRHCTLRMELLGCELSGCSEPLGMKSGHIQDYQITASSIFRTLNMDMFTWEPRKARLDKQGKVNAWTSGHNDQSQWLQVDLLVPTKVTGIITQGAKDFGHVQFVGSYKLAYSNDGEHWTVYQDEKQRKDKVFQGNFDNDTHRKNVIDPPIYARHIRILPWSWYGRITLRSELLGCTEEE [EDIL3]”, in series [1], the “solubility in G1/S (log2)” value was -0.122. The same substance came in with a melting temperature in series [2] (cell cycle stage: mitosis) of 55.6 °C. Besides, the “solubility change mitosis (log2)” value in series [3] was -0.0391. In addition, the thermal stability score in series [4] (setting [5]) is 1.05; in series [4] (cell cycle stage: mitosis), 0.661.
Consider SAR1A, for which the “solubility in G1/S (log2)” value in series [1] worked out at 0.207. The melting temperature in series [2] (cell cycle stage: G1/S) is 52 °C; in series [2] (cell cycle stage: mitosis), 52.8 °C. The “solubility change mitosis (log2)” value in series [3] is -0.239. Besides, the thermal stability score was found to be 2.01 in series [4] (setting [5]) and 1.85 in series [4] (cell cycle stage: mitosis).
For the substance “MALKVATVAGSAAKAVLGPALLCRPWEVLGAHEVPSRNIFSEQTIPPSAKYGGRHTVTMIPGDGIGPELMLHVKSVFRHACVPVDFEEVHVSSNADEEDIRNAIMAIRRNRVALKGNIETNHNLPPSHKSRNNILRTSLDLYANVIHCKSLPGVVTRHKDIDILIVRENTEGEYSSLEHESVAGVVESLKIITKAKSLRIAEYAFKLAQESGRKKVTAVHKANIMKLGDGLFLQCCREVAARYPQITFENMIVDNTTMQLVSRPQQFDVMVMPNLYGNIVNNVCAGLVGGPGLVAGANYGHVYAVFETATRNTGKSIANKNIANPTATLLASCMMLDHLKLHSYATSIRKAVLASMDNENMHTPDIGGQGTTSEAIQDVIRHIRVINGRAVEA [IDH3G]”, the “solubility in G1/S (log2)” value in series [1] worked out at 0.253. Moreover, the melting temperature in series [2] (cell cycle stage: G1/S) was 54.5 °C; in series [2] (cell cycle stage: mitosis) it was 54 °C. Moreover, the “solubility change mitosis (log2)” value in series [3] is -0.0967. Also, the thermal stability score in series [4] (setting [5]) is -0.804; in series [4] (cell cycle stage: mitosis), -0.821.
For “MVMAAKKGPGPGGGVSGGKAEAEAASEVWCRRVRELGGCSQAGNRHCFECAQRGVTYVDITVGSFVCTTCSGLLRGLNPPHRVKSISMTTFTEPEVVFLQSRGNEVCRKIWLGLFDARTSLVPDSRDPQKVKEFLQEKYEKKRWYVPPDQVKGPTYTKGSASTPVQGSIPEGKPLRTLLGDPAPSLSVAASTSSQPVSQSHARTSQARSTQPPPHSSVKKASTDLLADIGGDPFAAPQMAPAFAAFPAFGGQTPSQGGFANFDAFSSGPSSSVFGSLPPAGQASFQAQPTPAGSSQGTPFGATPLAPASQPNSLADVGSFLGPGVPAAGVPSSLFGMAGQVPPLQSVTMGGGGGSSTGLAFGAFTNPFTAPAAQSPLPSTNPFQPNGLAPGPGFGMSSAGPGFPQAVPPTGAFASSFPAPLFPPQTPLVQQQNGSSFGDLGSAKLGQRPLSQPAGISTNPFMTGPSSSPFASKPPTTNPFL [AGFG2]”, in series [1], the “solubility in G1/S (log2)” value amounted to 0.247. In addition, the melting temperature worked out at 46.6 °C in series [2] (cell cycle stage: G1/S) and 47.9 °C in series [2] (cell cycle stage: mitosis). The “solubility change mitosis (log2)” value in series [3] was -0.0538. In addition, the thermal stability score in series [4] (setting [5]) worked out at 0.518; in series [4] (cell cycle stage: mitosis) it was 0.826.
With “MRKPDSKIVLLGDMNVGKTSLLQRYMERRFPDTVSTVGGAFYLKQWRSYNISIWDTAGREQFHGLGSMYCRGAAAIILTYDVNHRQSLVELEDRFLGLTDTASKDCLFAIVGNKVDLTEEGALAGQEKEECSPNMDAGDRVSPRAPKQVQLEDAVALYKKILKYKMLDEQDVPAAEQMCFETSAKTGYNVDLLFETLFDLVVPMILQQRAERPSHTVDISSHKPPKRTRSGCCA [RAB20]”, the “solubility in G1/S (log2)” value in series [1] was 0.0752. The melting temperature in series [2] (cell cycle stage: G1/S) amounted to 54.4 °C; in series [2] (cell cycle stage: mitosis) it was 53.8 °C. For the same substance, the “solubility change mitosis (log2)” value in series [3] was -0.187. The thermal stability score in series [4] (setting [5]) is 3.91; in series [4] (cell cycle stage: mitosis), 1.44.
Take “MASCAEPSEPSAPLPAGVPPLEDFEVLDGVEDAEGEEEEEEEEEEEDDLSELPPLEDMGQPPAEEAEQPGALAREFLAAMEPEPAPAPAPEEWLDILGNGLLRKKTLVPGPPGSSRPVKGQVVTVHLQTSLENGTRVQEEPELVFTLGDCDVIQALDLSVPLMDVGETAMVTADSKYCYGPQGRSPYIPPHAALCLEVTLKTAVDGPDLEMLTGQERVALANRKRECGNAHYQRADFVLAANSYDLAIKAITSSAKVDMTFEEEAQLLQLKVKCLNNLAASQLKLDHYRAALRSCSLVLEHQPDNIKALFRKGKVLAQQGEYSEAIPILRAALKLEPSNKTIHAELSKLVKKHAAQRSTETALYRKMLGNPSRLPAKCPGKGAWSIPWKWLFGATAVALGGVALSVVIAARN [FKBP8]”: the “solubility in G1/S (log2)” value in series [1] was 0.229. Moreover, the melting temperature in series [2] (cell cycle stage: G1/S) turned out to be 48.7 °C; in series [2] (cell cycle stage: mitosis) it was 49.5 °C. Also, the “solubility change mitosis (log2)” value in series [3] is -0.0477. In addition, the thermal stability score in series [4] (setting [5]) came out at 1.22; in series [4] (cell cycle stage: mitosis), 3.
“MSVVGLDVGSQSCYIAVARAGGIETIANEFSDRCTPSVISFGSKNRTIGVAAKNQQITHANNTVSNFKRFHGRAFNDPFIQKEKENLSYDLVPLKNGGVGIKVMYMGEEHLFSVEQITAMLLTKLKETAENSLKKPVTDCVISVPSFFTDAERRSVLDAAQIVGLNCLRLMNDMTAVALNYGIYKQDLPSLDEKPRIVVFVDMGHSAFQVSACAFNKGKLKVLGTAFDPFLGGKNFDEKLVEHFCAEFKTKYKLDAKSKIRALLRLYQECEKLKKLMSSNSTDLPLNIECFMNDKDVSGKMNRSQFEELCAELLQKIEVPLYSLLEQTHLKVEDVSAVEIVGGATRIPAVKERIAKFFGKDISTTLNADEAVARGCALQCAILSPAFKVREFSVTDAVPFPISLIWNHDSEDTEGVHEVFSRNHAAPFSKVLTFLRRGPFELEAFYSDPQGVPYPEAKIGRFVVQNVSAQKDGEKSRVKVKVRVNTHGIFTISTASMVEKVPTEENEMSSEADMECLNQRPPENPDTDKNVQQDNSEAGTQPQVQTDAQQTSQSPPSPELTSEENKIPDADKANEKKVDQPPEAKKPKIKVVNVELPIEANLVWQLGKDLLNMYIETEGKMIMQDKLEKERNDAKNAVEEYVYEFRDKLCGPYEKFICEQDHQNFLRLLTETEDWLYEEGEDQAKQAYVDKLEELMKIGTPVKVRFQEAEERPKMFEELGQRLQHYAKIAADFRNKDEKYNHIDESEMKKVEKSVNEVMEWMNNVMNAQAKKSLDQDPVVRAQEIKTKIKELNNTCEPVVTQPKPKIESPKLERTPNGPNIDKKEEDLEDKNNFGAEPPHQNGECYPNEKNSVNMDLD [HSPH1]”: in series [1], the “solubility in G1/S (log2)” value worked out at 0.203. Also, the melting temperature in series [2] (cell cycle stage: G1/S) came out at 50.2 °C; in series [2] (cell cycle stage: mitosis) it was 49.7 °C. For the same substance, in series [3], the “solubility change mitosis (log2)” value is -0.0593. Besides, the thermal stability score was found to be 1.34 in series [4] (setting [5]) and 1.52 in series [4] (cell cycle stage: mitosis).

Values taken from the supplement of paper PMC5998384.
